Test results: patent publication US20200325237A1 (AVIDITY BIOSCIENCES, published 2020)

Tests used:
[1] = biological target: T1, recombinant human transferrin receptor protein (Sino Biological 11020-H07H) (human, UniProt P02786 89-760); test: ELISA on plate-coated recombinant human TfR1; fit: specific binding with Hill slope
T1 construct: Bought protein coated on ELISA plates; also called recombinant human TfR1; human TfR1
Protocol: (§1) 100 μL of Superblock (ThermoFisher PI-37535) was added to each well and incubated for 1 hour at room temperature. The wash step was repeated before the addition of the samples. Samples were added at concentrations up to 10 nM, 50 μL/well. Plates were incubated for another hour at room temp and wash step repeated. Secondary antibody (Peroxidase AffiniPure Goat Anti-Human IgG, Fcγ Fragment Specific, Jackson Immunoresearch, 109-035-098) was diluted 1:5000 in Superblock and 50 μL/well added. Plates were incubated for 1 hour at room temperature and washed one more time. Binding was measured by the addition of 50 μL of 1-Step™ Ultra TMB-ELISA (ThermoFisher, 34028), incubated for 5 minutes, and the reaction was stopped with the addition of 25 μL of Stop Solution 2N sulfuric Acid (R&D Systems DY994). Absorbance was measured at 450 nm, with reference wavelength 570 nm subtracted. Binding constants were determined using GraphPad Prism Specific Binding with Hill Slope.
(§2) Half-well high-binding 96-well plates (Costar #3690) were coated with recombinant human transferrin receptor protein (Sino Biological 11020-H07H) or recombinant cyno transferrin receptor protein (Sino Biological 90253-C07H) at 1 ng/μL in PBS (Gibco 14190) and incubated overnight at 4° C. […] Absorbance was measured at 450 nm, with reference wavelength 570 nm subtracted. […]

[2] = biological target: T2, recombinant cyno transferrin receptor protein (Sino Biological 90253-C07H) (cyno, UniProt H9EXL1 89-760 (rhesus entry)); test: ELISA on plate-coated recombinant cyno TfR1 (CD71); fit: specific binding with Hill slope
T2 construct: Bought protein coated on ELISA plates; also called recombinant cyno TfR1; cynoTfR1
T2 sequence (chain, as listed by the source C07H C07H): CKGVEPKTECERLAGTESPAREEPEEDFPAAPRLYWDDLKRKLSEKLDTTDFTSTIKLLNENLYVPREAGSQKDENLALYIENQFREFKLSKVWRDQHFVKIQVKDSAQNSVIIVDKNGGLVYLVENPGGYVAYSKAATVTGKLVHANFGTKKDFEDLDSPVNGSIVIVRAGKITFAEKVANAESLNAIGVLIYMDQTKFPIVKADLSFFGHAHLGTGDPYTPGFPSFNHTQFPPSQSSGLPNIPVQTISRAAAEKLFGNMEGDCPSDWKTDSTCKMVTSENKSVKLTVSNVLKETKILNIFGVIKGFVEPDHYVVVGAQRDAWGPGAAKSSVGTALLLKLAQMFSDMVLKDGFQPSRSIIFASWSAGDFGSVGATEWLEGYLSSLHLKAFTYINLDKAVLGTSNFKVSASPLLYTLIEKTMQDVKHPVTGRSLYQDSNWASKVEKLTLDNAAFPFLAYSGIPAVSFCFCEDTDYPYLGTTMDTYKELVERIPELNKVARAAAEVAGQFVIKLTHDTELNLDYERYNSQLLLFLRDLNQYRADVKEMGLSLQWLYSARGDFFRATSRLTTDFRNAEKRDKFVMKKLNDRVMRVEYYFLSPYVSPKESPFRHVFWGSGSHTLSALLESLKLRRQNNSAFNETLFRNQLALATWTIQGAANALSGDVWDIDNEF
Protocol: as §1, §2

T1 sequence (P02786 89-760 limits assumed): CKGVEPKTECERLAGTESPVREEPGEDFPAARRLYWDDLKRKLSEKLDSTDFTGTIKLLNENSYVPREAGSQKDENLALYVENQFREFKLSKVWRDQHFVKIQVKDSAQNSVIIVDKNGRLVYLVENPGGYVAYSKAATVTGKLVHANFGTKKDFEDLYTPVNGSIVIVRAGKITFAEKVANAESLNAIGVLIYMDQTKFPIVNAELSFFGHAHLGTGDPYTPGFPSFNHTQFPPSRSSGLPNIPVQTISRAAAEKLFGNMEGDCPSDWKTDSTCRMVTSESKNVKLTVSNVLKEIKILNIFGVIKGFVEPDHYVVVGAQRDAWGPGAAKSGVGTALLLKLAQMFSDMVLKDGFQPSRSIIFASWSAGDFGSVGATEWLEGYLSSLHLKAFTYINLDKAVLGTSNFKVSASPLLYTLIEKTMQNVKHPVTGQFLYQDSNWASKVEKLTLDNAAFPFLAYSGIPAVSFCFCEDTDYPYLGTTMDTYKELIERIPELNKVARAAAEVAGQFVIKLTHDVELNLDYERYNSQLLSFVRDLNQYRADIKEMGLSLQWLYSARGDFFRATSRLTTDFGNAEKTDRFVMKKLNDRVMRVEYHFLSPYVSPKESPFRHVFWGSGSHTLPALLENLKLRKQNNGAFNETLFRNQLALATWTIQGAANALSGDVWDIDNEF

- Kd [1]: 3.22 pM
- Kd [2]: 4.87 pM
B1: hTfR1.IgG2 mAb (chimeric human IgG2 anti-hTfR1 antibody) (antibody, V domains shown)
VH: QVQLQQPGAELVKPGASVKLSCKASGYTFTNYWMHWVKQRPGQGLEWIGEINPINGRSNYGERFKTKATLTVDKSSSTAYMQLSSLTSEDSAVYYCARGTRAMHYWGQGTSVTVSS
VL: DIQMTQSPASLSVSVGETVTITCRTSENIYNNLAWYQQKQGKSPQLLVYAATNLADGVPSRFSGSGSGTQYSLKINSLQSEDFGNYYCQHFWGTPLTFGAGTKLELKR
notes: The heavy variable region is printed there only as images; also called hTfRL.IgG2 mAb; TfR1-IgG2 mAb chimera
